Data: patent publication US20070092518A1 (published 2007)

Target: T1, human tumor necrosis factor-α (rHuTNF-alpha, Biosource) (human, UniProt P01375 77-233)
T1 construct: Bought recombinant protein coated on ELISA plates; The TNFα of the Biacore assay is not described further; also called TNFα; human TNFα
Assay: solid-phase ELISA, Fab lysate on coated rHuTNF-alpha
Description: The Fab libraries were cloned into pTrcHis2A (Cat. No. V365-20, Invitrogen, Carlsbad, Calif.). Proteins were expressed in E. coli and solid-phase ELISA was used to assess Fab binding to human TNFα. Briefly, 96-well plates were coated overnight at 4° C. with 1 μg/ml of rHuTNF-alpha (Biosource, Camarillo, Calif.) in Carbonate-bicarbonate buffer, pH9.4. After washing in PBS with 0.05% (w/v) Tween-20, the wells were blocked with 1% (w/v) BSA in PBS for 1 hour at room temperature. After washing, plates were incubated with transformed E. coli cell lysate diluted in the assay buffer (1% BSA and 0.05% Tween-20 in 10 mM PBS) for 2 hours at room temperature. Various concentrations of infliximab (0.5, 1 and 2 ng/ml) were used as positive anti-Human Kappa Light Chain Biotin/anti-penta-His Biotin control. Plates were washed and incubated with ImmunoPure Goat Anti-Human Kappa Chain, Biotin Conjugated (Cat. No. 31780, Pierce Biotechnology, Rockford, Ill.) and Penta-His Biotin Conjugate (Cat. No. 34440, QIAGEN, Valencia, Calif.) diluted 1:2000 in the assay buffer for 1 hour at room temperature. Following another washing step, plates were probed for 1 hour at room temperature with 100 μL/well of Streptavidin POD (Cat. No. 1089153, Roche Applied Science, Indianapolis, Ind.) diluted 1:4000 in the assay buffer. Plates were further washed and then incubated with 3,3′,5,5′-tetramentylbenzidine (TMB, Cat. No. 34028, Pierce Biotechnology) for 30 minutes. Substrate development was stopped by addition of 100 μL/well TMB Stop Solution (Cat. No. 50-85-05, KPL, Gaithersburg, Md.) and the absorbance was measured at 450 nm via an automated plate spectrophotometer.

T1 sequence (P01375 77-233 limits assumed): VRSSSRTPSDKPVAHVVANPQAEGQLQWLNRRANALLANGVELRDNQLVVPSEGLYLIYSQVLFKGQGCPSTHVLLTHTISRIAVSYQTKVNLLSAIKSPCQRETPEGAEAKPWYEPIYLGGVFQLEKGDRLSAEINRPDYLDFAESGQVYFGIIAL

Binder | binding result
SEQ ID NO 92 (Fab, V domains shown, Fab, E. coli lysate) VH: EVQLVESGGGLVQPGGSLRLSCAASGSIFSNHWMNWVRQAPGKGLEWIGEIRSKSSNSATHYAESVKGRFIISRDGNKNDLTLEMNSLKTEDTAEYYCARNYYGSTYDYWGQGTLVTVS VL: EIVLTQSPDFQSVTPKEKVTITCRASQFVGSSIHWYQQKPDQSPKLLIKYASESMSGVPSRFSGSGSGTDFTFTISSLEAEDAATYYCQQSHSWPFTFGPGTKVDIK | binds
SEQ ID NO 105 (Fab, V domains shown, Fab, E. coli lysate) VH: EVQLTESGGGLVQPGGSLRLSCAASGFIFSNHYMNWVRQAPGKGLEWIGEIRSKSSNGATSYAESVKGRFIISRDDNGNSLTLEMNSLKTEDTAEYYCAQNYYGSTPDYWGQGTLVTVS VL: EIVLTQSPDFQSVTPKEKVTITCRASQFVGSSIHWYQQKPDQSPKLLIKYASESMSGVPSRFSGSGSGTDFTFTISSLEAEDAATYYCQQSHSWPFTFGPGTKVDIK | binds
SEQ ID NO 108 (Fab, V domains shown, Fab, E. coli lysate) VH: EVQLTESGGGLVQPGGSLRLSCAASQFTFSNHYMNWVRQAPGKGLEWIGEIRSKSIYSATSYAESVKGRFIISRDGNKNSLTLEMNSLKTEDTAEYYCAQNYYGSTYDYWGQGTLVTVS VL: EIVLTQSPDFQSVTPKEKVTITCRASQFVGSSIHWYQQKPDQSPKLLIKYASESMSGVPSRFSGSGSGTDFTFTISSLEAEDAATYYCQQSHSWPFTFGPGTKVDIK | binds
SEQ ID NO 109 (Fab, V domains shown, Fab, E. coli lysate) VH: EVQLVESGGGLVQPGGSLRLSCRASGSIFSNHWMNWVRQAPGKGLEWIGEIRSKSSNSATHYAESVKGRFIISRDDNKNDLTLEMNSLKTEDTAEYYCARNYYGSTYDYWGQGTLVTVS VL: EIVLTQSPDFQSVTPKEKVTITCRASQFVGSSIHWYQQKPDQSPKLLIKYASESMSGVPSRFSGSGSGTDFTFTISSLEAEDAATYYCQQSHSWPFTFGPGTKVDIK | binds
SEQ ID NO 94 (Fab, V domains shown, Fab, E. coli lysate) VH: EVQLVESGGGLVQPGGSLRLSCRASGSIFSNHWMNWVRQAPGKGLEWIGEIRSKSINGATHYAESVKGRFIISRDDNGTSLYLEMNSLKTEDTAEYYCARNYYGSTYDYWGQGTLVTVS VL: EIVLTQSPDFQSVTPKEKVTITCRASQFVGSSIHWYQQKPDQSPKLLIKYASESMSGVPSRFSGSGSGTDFTFTISSLEAEDAATYYCQQSHSWPFTFGPGTKVDIK | binds
SEQ ID NO 106 (Fab, V domains shown, Fab, E. coli lysate) VH: EVQLVESGGGLVQPGGSLRLSCAASQFIFSNHWMNWVRQAPGKGLEWIGEIRSKSSNGATSYAESVKGRFIISRDGNKTDLTLEMNSLKTEDTAEYYCAQNYYGSTYDYWGQGTLVTVS VL: EIVLTQSPDFQSVTPKEKVTITCRASQFVGSSIHWYQQKPDQSPKLLIKYASESMSGVPSRFSGSGSGTDFTFTISSLEAEDAATYYCQQSHSWPFTFGPGTKVDIK | binds
SEQ ID NO 101 (Fab, V domains shown, Fab, E. coli lysate) VH: EVQLVESGGGLVQPGGSLRLSCRASGFTFSNHYMNWVRQAPGKGLEWIGEIRSKSSNSATSYAESVKGRFIISRDDNGNSLYLEMNSLKTEDTAEYYCAQNYYGSTPDYWGQGTLVTVS VL: EIVLTQSPDFQSVTPKEKVTITCRASQFVGSSIHWYQQKPDQSPKLLIKYASESMSGVPSRFSGSGSGTDFTFTISSLEAEDAATYYCQQSHSWPFTFGPGTKVDIK | binds
SEQ ID NO 100 (Fab, V domains shown, Fab, E. coli lysate) VH: EVQLTESGGGLVQPGGSLRLSCRASQFIFSNHYMNWVRQAPGKGLEWIGEIRSKSINGATHYAESVKGRFIISRDDNKTDLYLEMNSLKTEDTAEYYCARNYYGSTYDYWGQGTLVTVS VL: EIVLTQSPDFQSVTPKEKVTITCRASQFVGSSIHWYQQKPDQSPKLLIKYASESMSGVPSRFSGSGSGTDFTFTISSLEAEDAATYYCQQSHSWPFTFGPGTKVDIK | binds
SEQ ID NO 98 (Fab, V domains shown, Fab, E. coli lysate) VH: EVQLTESGGGLVQPGGSLRLSCRASGFTFSNHWMNWVRQAPGKGLEWIGEIRSKSSNGATHYAESVKGRFIISRDGNKTDLYLEMNSLKTEDTAEYYCARNYYGSTPDYWGQGTLVTVS VL: EIVLTQSPDFQSVTPKEKVTITCRASQFVGSSIHWYQQKPDQSPKLLIKYASESMSGVPSRFSGSGSGTDFTFTISSLEAEDAATYYCQQSHSWPFTFGPGTKVDIK | binds
SEQ ID NO 99 (Fab, V domains shown, Fab, E. coli lysate) VH: EVQLVESGGGLVQPGGSLRLSCAASGSIFSNHYMNWVRQAPGKGLEWIGEIRSKSSNGATHYAESVKGRFIISRDDNKNSLYLEMNSLKTEDTAEYYCAQNYYGSTYDYWGQGTLVTVS VL: EIVLTQSPDFQSVTPKEKVTITCRASQFVGSSIHWYQQKPDQSPKLLIKYASESMSGVPSRFSGSGSGTDFTFTISSLEAEDAATYYCQQSHSWPFTFGPGTKVDIK | binds
SEQ ID NO 95 (Fab, V domains shown, Fab, E. coli lysate) VH: EVQLTESGGGLVQPGGSLRLSCRASGSTFSNHYMNWVRQAPGKGLEWIGEIRSKSSNSATSYAESVKGRFIISRDDNKTSLYLEMNSLKTEDTAEYYCARNYYGSTYDYWGQGTLVTVS VL: EIVLTQSPDFQSVTPKEKVTITCRASQFVGSSIHWYQQKPDQSPKLLIKYASESMSGVPSRFSGSGSGTDFTFTISSLEAEDAATYYCQQSHSWPFTFGPGTKVDIK | binds
SEQ ID NO 102 (Fab, V domains shown, Fab, E. coli lysate) VH: EVQLVESGGGLVQPGGSLRLSCRASGFIFSNHWMNWVRQAPGKGLEWIGEIRSKSINGATHYAESVKGRFIISRDDNKTSLYLEMNSLKTEDTAEYYCARNYYGSTYDYWGQGTLVTVS VL: EIVLTQSPDFQSVTPKEKVTITCRASQFVGSSIHWYQQKPDQSPKLLIKYASESMSGVPSRFSGSGSGTDFTFTISSLEAEDAATYYCQQSHSWPFTFGPGTKVDIK | binds
SEQ ID NO 93 (Fab, V domains shown, Fab, E. coli lysate) VH: EVQLTESGGGLVQPGGSLRLSCRASGFTFSNHYMNWVRQAPGKGLEWIGEIRSKSSYGATHYAESVKGRFIISRDDNGTDLYLEMNSLKTEDTAEYYCAQNYYGSTPDYWGQGTLVTVS VL: EIVLTQSPDFQSVTPKEKVTITCRASQFVGSSIHWYQQKPDQSPKLLIKYASESMSGVPSRFSGSGSGTDFTFTISSLEAEDAATYYCQQSHSWPFTFGPGTKVDIK | binds
SEQ ID NO 104 (Fab, V domains shown, Fab, E. coli lysate) VH: EVQLTESGGGLVQPGGSLRLSCRASQFIFSNHYMNWVRQAPGKGLEWIGEIRSKSINSATHYAESVKGRFIISRDDNKNDLYLEMNSLKTEDTAEYYCAQNYYGSTPDYWGQGTLVTVS VL: EIVLTQSPDFQSVTPKEKVTITCRASQFVGSSIHWYQQKPDQSPKLLIKYASESMSGVPSRFSGSGSGTDFTFTISSLEAEDAATYYCQQSHSWPFTFGPGTKVDIK | binds
SEQ ID NO 110 (Fab, V domains shown, Fab, E. coli lysate) VH: EVQLVESGGGLVQPGGSLRLSCAASGSIFSNHWMNWVRQAPGKGLEWIGEIRSKSINSATSYAESVKGRFIISRDDNKTDLYLEMNSLKTEDTAEYYCAQNYYGSTPDYWGQGTLVTVS VL: EIVLTQSPDFQSVTPKEKVTITCRASQFVGSSIHWYQQKPDQSPKLLIKYASESMSGVPSRFSGSGSGTDFTFTISSLEAEDAATYYCQQSHSWPFTFGPGTKVDIK | binds
SEQ ID NO 97 (Fab, V domains shown, Fab, E. coli lysate) VH: EVQLTESGGGLVQPGGSLRLSCRASGSTFSNHWMNWVRQAPGKGLEWIGEIRSKSSNGATSYAESVKGRFIISRDDNGTDLYLEMNSLKTEDTAEYYCAQNYYGSTYDYWGQGTLVTVS VL: EIVLTQSPDFQSVTPKEKVTITCRASQFVGSSIHWYQQKPDQSPKLLIKYASESMSGVPSRFSGSGSGTDFTFTISSLEAEDAATYYCQQSHSWPFTFGPGTKVDIK | binds
